Article PMC7665024, “Anti-apoptotic BCL-2 regulation by changes in dynamics of its long unstructured loop” (Communications Biology, 2020)
Entries after “also recorded” stand apart in the source; their conditions may differ.

B1: EEE (protein)
chain: MAHAGRTGYDNREIVMKYIHYKLSQRGYEWDAGDVGAAPPGAAPAPGIFSSQPGHTPHPAASRDPVAREEPLQTPAAPGAAAGPALEPVPPVVHLTLRQAGDDFSRRYRRDFAEMSSQLHLTPFTARGRFATVVEELFRDGVNWGRIVAFFEFGGVMCVESVNREMSPLVDNIALWMTEYLNRHLHTWIQDNGGWDAFVELYGPSMRPLFDFSWLSL
modifications: Pacific Blue (maleimide) on the native cysteine 158; left off: His6, C-terminal, state not stated

What was measured:
BCL-2-dependent tumors = conditions: cited from earlier work
Excerpt: It is worth noting that the binding groove is also responsible for the engagement of an orally bioavailable small molecule ABT-199 (Venetoclax)[8],[13]. […] ABT-199 can displace the bound pro-apoptotic activator from the groove of BCL-2 efficiently and, consequently, cause the release of pro-apoptotic activators, promoting MOMP and apoptosis. This study will use ABT-199 to examine whether the BCL-2 mutants studied here have the same response as FL-BCL-2 to ABT-199.

[1] = tested on: BCL-2 (EEE or WT):BimBH3, BAX-induced MOMP; test: Cytochrome c release assay at varying amount of ABT-199; assay type: biochemical, mouse
Method: (§1) Fig. 2 In vitro assays for evaluating BCL-2 activity. a Cytochrome c release assay with various BCL-2 mutants at varying concentrations. All of the release amounts are normalized to the result caused by the BimBH3-induced BAX activation (lane 3). […] GUVs provide a MOM-like environment devoid of endogenous mitochondrial proteins.
The cytochrome c release assays were performed at varying amounts of ABT-199.
A Dounce homogenizer was used with 20 strokes to homogenize mouse liver tissue (0.2 mg). The mitochondria fraction was separated using centrifugation according to the Mitochondria Isolation Kit (Thermo Scientific). Mitochondria Assay Buffer A (MAB A) (200 mM mannitol, 68 mM sucrose, 10 mM HEPES, 110 mM KCl, 1 mM EDTA, […], 0.1% BSA, protease inhibitor) was used to wash the mitochondria fraction, followed by centrifugation at 12,000 × g. The pellet was collected and resuspended using enough MAB B (i.e., MBA A without 0.1% BSA) and then quantified by bradford assay (Bio-Rad) to yield a final protein content of the mitochondrial fraction ~3 mg/mL. […] Quantification of IB was done using ImageJ software (version 1.49, NIH). The fraction of cytochrome c released (%) is calculated by (I–I0)/(Imax–I0)×100%, where Imax and I0 are the analyzed intensities of cytochrome c with and without activated BAX, respectively. […]

[2] = tested on: BAX-induced MOMP, isolated mitochondria; test: In vitro cytochrome c release assay, isolated mitochondria (BCL-2 mutants); assay type: biochemical, mouse; conditions: for Cytochrome c release, Average: Bax+BimBH3 = 100, mean of n = 6
Excerpt: To verify this implication, we performed in vitro cytochrome c release assay using isolated mitochondria. […] Lane 3 (Fig. 2a) is a positive control for the cytochrome c release assays. […] (More experimental results in support of the observed BCL-2 activity are given in Supplementary Fig. 3.)
as §1
A Dounce homogenizer was used with 20 strokes to homogenize mouse liver tissue (0.2 mg). The mitochondria fraction was separated using centrifugation according to the Mitochondria Isolation Kit (Thermo Scientific). Mitochondria Assay Buffer A (MAB A) (200 mM mannitol, 68 mM sucrose, 10 mM HEPES, 110 mM KCl, 1 mM EDTA, […], 0.1% BSA, protease inhibitor) was used to wash the mitochondria fraction, followed by centrifugation at 12,000 × g. The pellet was collected and resuspended using enough MAB B (i.e., MBA A without 0.1% BSA) and then quantified by bradford assay (Bio-Rad) to yield a final protein content of the mitochondrial fraction ~3 mg/mL. The final mitochondria fraction was placed on ice for further downstream processing or stored at −80 °C with additional 300 mM trehalose for future use[38]. […] The mixture was then incubated with BAX (0.1 μM) and 10 μL of the mitochondrial fraction ([…]) for 0.5 h at 37 °C. Final volume was adjusted to 30 μL. Following centrifugation at 12,000×g for 10 min, the supernatant was subjected to subsequent immunoblotting (IB). Quantification of IB was done using ImageJ software (version 1.49, NIH). The fraction of cytochrome c released (%) is calculated by (I–I0)/(Imax–I0)×100%, where Imax and I0 are the analyzed intensities of cytochrome c with and without activated BAX, respectively.
Samples were resolved by SDS–PAGE (15%) and electroblotted onto a 0.45 μm PVDF membrane (GE Healthcare). Primary antibodies used in this study included rabbit anti-BAX N20 (Santa Cruz Biotechnology), mouse anti-BCL-2(C2) (Santa Cruz Biotechnology) and mouse anti-cytochrome c antibodies (clone 7H8.2C12, Millipore). Detection was achieved using sheep anti-mouse IgG HRP (GE Healthcare) and donkey anti-rabbit IgG HRP (GE Healthcare) secondary antibodies. Proteins were visualized by 4CN Plus Chromogenic Substrate (PerkinElmer).

apoptotic cell death = conditions: phosphomimetic BCL-2; cited from earlier work
Excerpt: However, the three phosphorylation-related residues are in a 65-residue-long, highly flexible loop domain (denoted by FLD, herein; Fig. 1a) that is often removed for ...

trypsin = test: Limited proteolysis by trypsin; conditions: BCL-2 20 μM, trypsin 0.04-9.44 μM, 1 h, room temperature, SDS-PAGE
Method: Fig. 3 Structural differences between WT and EEE. a An illustration of mutation sites prepared for spin-labeling ESR studies. b Distance distributions of various double-spin-labeled BCL-2 (WT or EEE) mutants are determined from the experimental DEER data. […] As highlighted, the displacements of α1 and α2 account for the major differences. d An illustration highlighting the positions of α2–α7 and the binding groove. Structures of WT and EEE are colored as in c. Helices α4–α7 change little between the WT and EEE. The displacement of α2 is critical to the change in the local environment of the binding groove. e Limited proteolysis of BCL-2 (20 μM) analyzed on SDS–PAGE. Trypsin concentrations were 0.04, 0.11, 0.34, 1.03, 3.11, 9.44 μM. Incubation time was 1 h at room temperature. It confirms that tertiary conformations of WT versus EEE are indeed different.
BCL-2 conformational change was assessed by limited proteolysis using trypsin (MERCK). In brief, 5 µg BCL-2 (WT or EEE) was digested at enzyme/substrate ratios ranging from 1:2 to 1:461 for 1 h at room temperature. Proteolysis was quenched by adding 1 mM PMSF, and then samples were confirmed by SDS–PAGE with Coomassie blue staining.

[3] = BAX 0.1 µM, BimBH3 2 µM, Fig. 2a

Row | Molecule | inhibition of tumor growth (in words) (BCL-2-dependent tumors) | effect on cytochrome c release (in words) ([1]; ABT-199 4–30 µM added to pre-incubated BCL-2 (EEE or WT), BimBH3 2 µM, BAX 0.1 µM, mitochondria, Fig. 2b) | displacement of BimBH3 from BCL-2 (in words) ([1]; BCL-2 EEE or WT) | inhibition of BAX-induced MOMP / cytochrome c release (in words) [2, 3] | protection against apoptotic cell death (in words) (apoptotic cell death) | capacity to inhibit BAX-induced MOMP compared with S70E and WT (in words) [2, 3] | Cytochrome c release, Average ([2]; BAX+BimBH3 + 2uM BCL-2 protein) | Cytochrome c release, Average ([2]; BAX+BimBH3 + 4uM BCL-2 protein) | Cytochrome c release, Average ([2]; BAX+BimBH3 + 6uM BCL-2 protein) | susceptibility to trypsin proteolysis (in words) (trypsin)
1 | CC1(C)CCC(CN2CCN(c3ccc(C(=O)NS(=O)(=O)c4ccc(NCC5CCOCC5)c([N+](=O)[O-])c4)c(Oc4cnc5[nH]ccc5c4)c3)CC2)=C(c2ccc(Cl)cc2)C1 [ABT-199, Venetoclax, reference compound] | potently inhibits the growth of BCL-2-dependent tumors | the greater the release of cytochrome c was detected | can displace BimBH3 from BCL-2 (either EEE or WT) | – | – | – | – | – | – | –
2 | BAX: full-length mouse BAX; in FRET the single-cysteine variant BAX136C labeled with AL488 [reference compound] | – | – | – | inactive | – | – | – | – | – | –
3 | B1 | – | – | – | largely inhibited | enhanced to protect cells against apoptotic cell death | evidently greater than those of S70E (lanes 7–9) and WT (lanes 10–12); also recorded: the most potent in inhibiting the BAX-induced MOMP | 66.3319 | 14.0555 | 8.953 | relatively resistant
